Results from US20200199244A1 (published 2020).
Residue numbers refer to the chain shown, from its start.

B1: BMS3h-41-1 (other)
VH: EVQLLESGEGLVQPGGSLRLSCAASGFTFTEHEMIWVRQAPGKGLEWVSSISGNGANTYYADSVKGRFTISRDNSKNTLYLQMNSLRPEDTAVYYCAKEPLRFDYWGQGTLVTVSS
B2: BMS3h-41-2 (other)
VH: B1 VH with E9G, F27S, H32Y, V48I, P88A, Y95F, W106R
B3: BMS3h-41-9 (other)
VH: B1 VH with S7P, E9G, H32Y, Q39K, L45M, Y105D
B4: BMS3h-41-13 (other)
VH: B1 VH with G8A, E9G, T30A, H32Y, P88A, T110A
B5: BMS3h-56-1 (other)
VH: EVQLLESGGGLVQPGGSLRLSCAASGFTFRDYEMWWVRQAPGKGLERVSAINPQGTRTYYADSVKGRFTISRDNSKNTLYLQMNSLRAEDTAVYYCAKLPFTFEDWGQGTLVTVSS
B6: BMS3h-56-6 (other)
VH: B5 VH with T28S, V37Y, T102I, E104D, D105N, W106R
B7: BMS3h-56-261 (other)
VH: B5 VH with T102F, E104Q, D105E
B8: BMS3h-56-7 (other)
VH: B5 VH with A92S, Y95H, L99P, T102I, E104G, Q108P
B9: BMS3h-56-269 (other)
VH: B5 VH with T102R, E104S, W106R
B10: BMS3h-56-266 (other)
VH: B5 VH with T102F, E104H, D105E
B11: BMS3h-56-215 (other)
VH: B5 VH with Q54H, T56S, R57L, E104D
B12: BMS3h-56-265 (other)
VH: B5 VH with F101Q, T102L, E104Q
B13: BMS3h-56-203 (other)
VH: B5 VH with T102F, D105E
B14: BMS3h-56-258 (other)
VH: B5 VH with T102Y, E104H, D105E
B15: BMS3h-56-224 (other)
VH: B5 VH with Q54W, T56Q, R57L
B16: BMS3h-56-262 (other)
VH: B5 VH with F101Q, T102L, E104H, W106R
B17: BMS3h-56-232 (other)
VH: B5 VH with Q54W, T56S, R57H, E104D
B18: BMS3h-56-2 (other)
VH: B5 VH with E104D
B19: BMS3h-56-243 (other)
VH: B5 VH with Q54W, T56G, R57F
B20: BMS3h-56-270 (other)
VH: B5 VH with F101T, T102L, E104Q
B21: BMS3h-56-202 (other)
VH: B5 VH with F101T, T102Y, E104S, W106R
B22: BMS3h-56-244 (other)
VH: B5 VH with Q54W, T56G, R57L, E104D
B23: BMS3h-56-248 (other)
VH: B5 VH with Q54Y, T56N, R57L, E104D
B24: BMS3h-56-253 (other)
VH: B5 VH with Q54A, T56G, R57Y, Y95H
B25: BMS3h-56-246 (other)
VH: B5 VH with Q54W, R57L
B26: BMS3h-56-239 (other)
VH: B5 VH with Q54W, T56S, R57L, E104D
B27: BMS3h-56-206 (other)
VH: B5 VH with Y95H, F101M, T102F, S116N
B28: BMS3h-56-217 (other)
VH: B5 VH with Q54W, T56S, R57L
B29: BMS3h-56-201 (other)
VH: B5 VH with T102Y, E104Q, D105E
B30: BMS3h-43-1 (other)
VH: EVQLLESGGGLVQPGGSLRLSCTASGFTFNMYEMSWVRQAPGKGLEWVSGISRRGFTTYYADSVKGRFTISRDNSKNTLYLQMNSLRAEDTAVYYCAKEPITYDLRYARFDYSGQGTLVTVSS
B31: BMS3h-43-3 (other)
VH: B30 VH with S75F, L105M, S113G
B32: BMS3h-43-5 (other)
VH: B30 VH with M31T, S52G
B33: BMS3h-43-11 (other)
VH: B30 VH with Q39K, R54H, L105M, S113W
B34: BMS3h-38-235 (other)
VH: EVQLLASGGGLVQPGGSLRLSCAASGFTFEEEEMIWVRQAPGKGLEWVSAISRNGYSTYYADSVKGRFTISRDNSKNTLYLQMNSLRAEDTAVYYCGKEPFRYDYWGQGTLVTVSS
B35: BMS3h-38-237 (other)
VH: B34 VH with N54G, Y56W
B36: BMS3h-38-238 (other)
VH: B34 VH with N54S
B37: BMS3h-38-3 (other)
VH: B34 VH with V48I, R53G, N54S, Y56G, Y103F

target: human CD40 (human, UniProt P25942 21-277); assay: cell-based or functional assay
Sequence (P25942 21-277 limits assumed): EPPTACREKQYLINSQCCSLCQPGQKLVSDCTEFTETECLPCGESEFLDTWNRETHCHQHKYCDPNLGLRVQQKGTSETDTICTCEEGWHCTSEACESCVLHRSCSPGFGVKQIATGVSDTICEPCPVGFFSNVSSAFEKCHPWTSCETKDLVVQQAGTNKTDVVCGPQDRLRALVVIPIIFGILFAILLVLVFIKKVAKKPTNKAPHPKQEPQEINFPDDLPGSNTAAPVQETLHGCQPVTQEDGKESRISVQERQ

Binder | hIZCD40L-driven Human B Cell Proliferation EC50 [nM] | CHO-hCD40L-driven DC Activation IL-12 EC50 [nM] | CHO-hCD40L-driven Human B Cell Proliferation EC50 [nM] | T-B cell MLR EC50 [nM]
B1 | 104 |  |  | 
B2 | 47 |  |  | 
B3 | 148 |  |  | 
B4 | 208 |  |  | 
B5 | 7 |  |  | 
B6 | 4 |  |  | 
B7 | 0.17 | 3 | 25.5 | 17
B8 | 8 |  |  | 
B9 | 0.14 | 1.8 | 15 | 9.7
B10 | 0.19 | 2.8 | 19.5 | 13.8
B11 | 0.2 | 11 | 41 | 31
B12 | 0.36 |  |  | 
B13 | 0.45 | 3.7 | 51 | 52
B14 | 0.079 | 1.52 | 11 | 8.7
B15 | 0.5 | 18 | 26 | 47
B16 | 0.31 |  |  | 
B17 | 0.27 | 7.3 | 37 | 42
B18 | 3 |  | 326 | 276
B19 | 0.15 | 8.8 | 13.5 | 14.2

Binder | hIZCD40L-driven Human B Cell Proliferation EC50 [nM] | CHO-hCD40L-driven DC Activation IL-12 EC50 [nM] | CHO-hCD40L-driven Human B Cell Proliferation EC50 [nM] | T-B cell MLR EC50 [nM]
B20 | 0.31 |  |  | 
B21 | 0.6 | 2.9 | 39 | 50
B22 | 0.17 | 12.6 | 26 | 21
B23 | 0.36 |  |  | 
B24 | 0.4 |  |  | 
B25 | 0.24 | 23.2 | 34 | 23.8
B26 | 0.11 | 5.8 | 18 | 13.5
B27 | 0.1 | 0.7 | 6 | 5.25
B28 | 0.1 | 9.4 | 13 | 16
B29 | 0.12 | 0.93 | 11 | 7.25
B30 | 53 |  |  | 
B31 | 87 |  |  | 
B32 | 180 |  |  | 
B33 | 30 |  |  | 
B34 | 0.4 |  |  | 
B35 | 0.4 |  |  | 
B36 | 0.7 |  |  | 
B37 | 10 |  |  | 
